# Tests used:
# [1] = biological target: δ receptor (δ-Binding assay, replacement of 3H-naltrindole); experiment: δ-Binding, replacement of 3H-naltrindole (radioligand displacement)
# [2] = biological target: µ-receptor (guinea pig ileum preparation) (guinea pig); experiment: cell-based or functional assay
# [3] = biological target: δ-receptor (mouse vas deferens preparation) (mouse) (UniProt P32300); experiment: cell-based or functional assay
# Sequence of δ-receptor (mouse vas deferens preparation) (mouse) (P32300 whole entry, stated change not applied): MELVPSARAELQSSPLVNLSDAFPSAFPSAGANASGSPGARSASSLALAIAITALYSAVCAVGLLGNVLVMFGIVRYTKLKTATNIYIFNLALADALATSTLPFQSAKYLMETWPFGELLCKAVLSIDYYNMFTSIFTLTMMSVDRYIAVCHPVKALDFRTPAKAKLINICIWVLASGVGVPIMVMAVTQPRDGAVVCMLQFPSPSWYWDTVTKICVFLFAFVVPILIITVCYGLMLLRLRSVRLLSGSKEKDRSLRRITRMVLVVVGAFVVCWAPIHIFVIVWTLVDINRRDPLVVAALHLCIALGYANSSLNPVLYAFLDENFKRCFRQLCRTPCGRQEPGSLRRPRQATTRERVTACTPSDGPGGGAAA
substance,measurement,setting,value
Tyr-c[D-AlaL-Gly-Phe-L-AlaL]-NH2 (peptide),IC50,[1],7 nM
Tyr-c[D-AlaL-Gly-Phe-L-AlaL]-OH (peptide),IC50,[1],1 nM
Tyr-c[D-Cys-Gly-Phe-D-Cys]-NH2 (peptide),GPI IC50,[2],0.78 nM
Tyr-c[D-Cys-Gly-Phe-L-Cys]-NH2 (peptide),GPI IC50,[2],1.51 nM
Tyr-c[D-Cys-Gly-Phe-L-Cys]-OH (peptide),GPI IC50,[2],3.06 nM
Tyr-c[D-Pen-Gly-Phe-D-Pen]-OH (peptide),MVD IC50,[3],4.1 nM
same,GPI IC50,[2],7300 nM

# From US20020165132A1
